Measurements reported in patent US20260263599A1 (AUTOLUS, published 2026).
Substitutions are numbered along the chain they refer to.

B1: Jovi Hum 8 (antibody, V domains shown)
VH: QVQLVQSGAEVKKPGASVKVSCKASGYTFTGYVMHWVRQAPGQGLEWMGFINPYNDDIQSNERFRGRVTMTRDTSISTAYMELSRLRSDDTAVYYCARGAGYNFDGAYRFFDFWGQGTMVTVSS
VL: DIVMTQSPLSLPVTPGEPASISCRSSQRLVHSNGNTYLHWYLQKPGQSPRLLIYRVSNRFPGVPDRFSGSGSGTDFTLKISRVEAEDVGVYYCSQSTHVPYTFGQGTKLEIK
notes: also called H-AF 1; humanised antibody with H-AF062256 VH and 3aaz VL
B2: Jovi Hum 20 (antibody, V domains shown)
VH: B1 VH with M48I, T74K
VL: B1 VL
notes: also called H-AF 6
B3: Jovi Hum 16 (antibody, V domains shown)
VH: B1 VH with T74K
VL: B1 VL
notes: also called H-AF 2
B4: Jovi Hum 21 (antibody, V domains shown)
VH: B1 VH with M48I, R72S
VL: B1 VL
notes: also called H-AF 7
B5: Jovi Hum 17 (antibody, V domains shown)
VH: B1 VH with R72S
VL: B1 VL
notes: also called H-AF 3
B6: Jovi Hum 19 (antibody, V domains shown)
VH: B1 VH with M48I
VL: B1 VL
notes: also called H-AF 5
B7: Jovi Hum 27 (antibody, V domains shown)
VH: B1 VH with V20M, M48I
VL: B1 VL
notes: also called H-AF 13
B8: Jovi Hum 26 (antibody, V domains shown)
VH: B1 VH with V20M, R72S, T74K
VL: B1 VL
notes: also called H-AF 12
B9: Jovi Hum 18 (antibody, V domains shown)
VH: B1 VH with R72S, T74K
VL: B1 VL
notes: also called H-AF 4

Molecular target: T1, T Cell Receptor Beta Constant 2 (TRBC2) (human, UniProt A0A5B9 1-144, limits assumed)
T1 construct: ELISA antigen; also called TCR beta constant region 2
T1 sequence (A0A5B9 1-144 limits assumed): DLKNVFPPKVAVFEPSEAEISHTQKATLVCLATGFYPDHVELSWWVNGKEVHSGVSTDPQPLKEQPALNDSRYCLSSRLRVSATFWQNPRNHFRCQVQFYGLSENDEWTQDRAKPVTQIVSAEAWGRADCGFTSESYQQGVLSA
Assay: ELISA

| Binder | binding result |
| --- | --- |
| B1 | no binding |
| B2 | no binding |
| B3 | no binding |
| B4 | no binding |
| B5 | no binding |
| B6 | no binding |
| B7 | no binding |
| B8 | no binding |
| B9 | no binding |
